Results taken from patent US7018836 (UNIVERSITY OF IOWA RESEARCH FOUNDATION, dated 2006).

Target: T1, HIS-tagged human P-TEFb small subunit PITALRE (human, UniProt P50750 1-372)
T1 construct: also called HBS; HIS-tagged human kinase subunit (PITALRE)
Assay: co-expression in baculovirus, co-recovery with the HIS-tagged small subunit from a nickel column

T1 sequence (P50750 whole entry): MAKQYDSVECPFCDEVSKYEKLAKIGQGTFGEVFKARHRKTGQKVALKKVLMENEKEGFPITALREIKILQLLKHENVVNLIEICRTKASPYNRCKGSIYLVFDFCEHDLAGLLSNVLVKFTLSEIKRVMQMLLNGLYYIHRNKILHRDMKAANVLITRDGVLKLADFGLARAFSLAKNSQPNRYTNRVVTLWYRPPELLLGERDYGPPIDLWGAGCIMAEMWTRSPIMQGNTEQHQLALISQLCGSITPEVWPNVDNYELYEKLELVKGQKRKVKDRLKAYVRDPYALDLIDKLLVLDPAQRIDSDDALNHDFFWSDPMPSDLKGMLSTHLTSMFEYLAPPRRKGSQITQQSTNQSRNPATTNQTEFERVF

B1: Drosophila P-TEFb small subunit with a HIS-tag at the carboxyl-terminus (enzyme)
chain: MAHMSHMLQQPSGSTPSNVGSSSSRTMSLMEKQKYIEDYDFPYCDESNKYEKVAKIGQGTFGEVFKAREKKGNKKFVAMKKVLMDNEKEGFPITALREIRILQLLKHENVVNLIEICRTKATATNGYRSTFYLVFDFCEHDLAGLLSNMNVKFSLGEIKKVMQQLLNGLYYIHSNKILHRDMKAANVLITKHGILKLADFGLARAFSIPKNESKNRYTNRVVTLWYRPPELLLGDRNYGPPVDMWGAGCIMAEMWTRSPIMQGNTEQQQLTFISQLCGSFTPDVWPGVEELELYKSIELPKNQKRRVKERLRPYVKDQTGCDLLDKLLTLDPKKRIDADTALNHDFFWTDPMPSDLSKMLSQHLQSMFEYLAQPRRSNQMRNYHQQLTTMNQKPQDNSMIDRVW
notes: also called DBS; Drosophila P-TEFb small (kinase) subunit; not shown: HIS-tag added to the carboxyl-terminus
binding result: no binding
